Reference: patent US20220089647A1 (FUJIFILM, published 2022)
Starred links: 1 amine or outer side, 2 acyl side, 3 side chain; linkers in the order of their positions; H or OH if unused. Positions of bridges follow the written chain, without caps; N, C: chain ends. Non-standard residues stand in square brackets, D forms with d. Primed or numbered codes have the meaning given here. No end group written: not given here. Dab(acetyl)″ = 2-amino-4-(acetylamino)butanoic acid, acetyl CH3 carbon bonded to the S of Hcy (S-CH2-C(=O)-NH-), O=C(C[*:3])NCC[C@H](N[*:1])C(=O)[*:2]; Dab(acetyl) = 2-amino-4-acetylamino-butanoic acid residue (N-γ-acetyl-diaminobutyric acid), CC(=O)NCC[C@H](N[*:1])C(=O)[*:2]; COCH2 = acetyl group that carries the bridge; hCys = N[C@@H](CCS)C(=O)O; Dab = NCC[C@H](N)C(=O)O; Dap = NC[C@H](N)C(=O)O; βAla = NCCC(=O)O

Molecular target: T1, human integrin αvβ5 (human, UniProt P06756 31-992; P18084 24-719, limits assumed)
T1 construct: Heterodimer flowed as analyte at 30, 100, 300 and 1,000 nM in HEPES buffer with 5 mM MgCl2
Assay: SPR, Biacore 3000, peptide immobilised; B = KD more than 50 nM and 100 nM or less

T1 sequence (P06756 31-992 limits assumed, chain 1 of 2): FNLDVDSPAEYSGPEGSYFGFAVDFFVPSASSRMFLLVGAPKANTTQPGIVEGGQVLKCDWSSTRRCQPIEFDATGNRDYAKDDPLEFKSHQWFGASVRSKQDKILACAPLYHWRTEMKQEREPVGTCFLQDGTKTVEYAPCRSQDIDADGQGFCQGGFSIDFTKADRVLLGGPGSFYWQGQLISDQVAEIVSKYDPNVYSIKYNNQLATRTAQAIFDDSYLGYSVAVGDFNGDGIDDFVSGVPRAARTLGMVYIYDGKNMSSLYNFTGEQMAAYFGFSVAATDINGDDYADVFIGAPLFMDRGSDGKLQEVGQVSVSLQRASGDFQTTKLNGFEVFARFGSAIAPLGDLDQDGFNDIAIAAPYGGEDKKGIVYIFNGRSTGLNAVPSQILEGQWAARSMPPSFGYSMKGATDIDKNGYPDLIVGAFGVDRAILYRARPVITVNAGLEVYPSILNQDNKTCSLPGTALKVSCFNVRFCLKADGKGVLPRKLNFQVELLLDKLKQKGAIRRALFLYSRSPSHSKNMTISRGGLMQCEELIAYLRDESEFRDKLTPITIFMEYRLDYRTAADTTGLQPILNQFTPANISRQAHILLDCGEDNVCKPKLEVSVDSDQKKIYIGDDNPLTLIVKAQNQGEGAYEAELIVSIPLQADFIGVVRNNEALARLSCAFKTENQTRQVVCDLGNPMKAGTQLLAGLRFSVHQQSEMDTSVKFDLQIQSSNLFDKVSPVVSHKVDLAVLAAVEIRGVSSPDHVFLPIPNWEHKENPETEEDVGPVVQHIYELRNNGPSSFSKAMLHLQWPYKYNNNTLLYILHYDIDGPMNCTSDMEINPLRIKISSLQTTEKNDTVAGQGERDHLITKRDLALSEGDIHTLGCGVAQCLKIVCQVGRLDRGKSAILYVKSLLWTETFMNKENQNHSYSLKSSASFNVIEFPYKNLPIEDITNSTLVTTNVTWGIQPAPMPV
T1 sequence (P18084 24-719 limits assumed, chain 2 of 2): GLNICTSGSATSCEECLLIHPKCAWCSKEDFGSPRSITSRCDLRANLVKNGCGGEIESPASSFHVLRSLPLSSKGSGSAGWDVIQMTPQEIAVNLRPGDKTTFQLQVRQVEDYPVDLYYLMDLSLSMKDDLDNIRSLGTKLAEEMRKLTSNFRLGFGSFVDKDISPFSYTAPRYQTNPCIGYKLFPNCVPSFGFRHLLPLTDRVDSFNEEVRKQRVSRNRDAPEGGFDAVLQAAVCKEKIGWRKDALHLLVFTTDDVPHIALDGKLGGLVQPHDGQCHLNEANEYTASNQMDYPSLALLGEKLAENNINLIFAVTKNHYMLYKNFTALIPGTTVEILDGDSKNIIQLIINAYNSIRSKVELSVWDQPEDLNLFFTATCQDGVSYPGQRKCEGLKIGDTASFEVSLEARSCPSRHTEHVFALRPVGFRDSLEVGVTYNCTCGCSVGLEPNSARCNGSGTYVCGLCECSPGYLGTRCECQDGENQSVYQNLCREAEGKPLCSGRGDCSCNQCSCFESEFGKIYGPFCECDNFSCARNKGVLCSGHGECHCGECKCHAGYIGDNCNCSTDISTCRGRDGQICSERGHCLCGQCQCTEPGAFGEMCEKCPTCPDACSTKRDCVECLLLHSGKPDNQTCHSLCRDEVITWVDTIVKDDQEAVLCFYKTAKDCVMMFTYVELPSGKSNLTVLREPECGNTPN

dissociation constant (KD) | Binder
50 to 100 nM | KKK[hCys]VPRGDTFT[Dab(acetyl)] (thioether 4-13) [Cyclic peptide 154]
50 to 100 nM | KKK[hCys]TPRGDSFA[Dab(acetyl)] (thioether 4-13) [Cyclic peptide 156]
50 to 100 nM | KKKA[hCys]TTRGDSFA[Dab](COCH2)A (thioether 5-14) [Cyclic peptide 161]
50 to 100 nM | KKK[Dap](COCH2)EPRGDNYRC (thioether 4-13) [Cyclic peptide 167]

Molecular target: T1, human integrin αvβ5
Assay: SPR, Biacore 3000, peptide immobilised; C = KD more than 100 nM and 200 nM or less
Procedure: However, only for the cyclic peptides 125, 126, and 127, in which the number of lysine residues having an amino group as the immobilizing functional group was zero, the amount of the sample solution to be supplied to the sensor chip was set to 500 μL instead of 20 μL. Further, 70 μL of the mixed aqueous solution of 0.2 M EDC and 0.04 M NHS was added to another flow channel of the same sensor chip without immobilizing the sample, and then blocking treatment and washing treatment were carried out. Hereinafter, the obtained immobilization-treated sensor chip is referred to as an “immobilization-treated sensor chip A”.
After adding human integrin αvβ5 for 10 minutes at 25° C., which was diluted to 30 nM using a HEPES buffer solution to which magnesium chloride was added to 5 mM, in each flow channel of the immobilization-treated sensor chip A prepared in (1) above, the same HEPES buffer solution (containing 5 mM magnesium chloride) was allowed to flow as a running buffer for 30 minutes, and measurement was carried out with Biacore 3000. Then, a regeneration treatment of removing human integrin αvβ5 was carried out by allowing a 0.5 M EDTA aqueous solution to flow through each flow channel for 10 minutes. Further, the above-described measurement process consisting of adding integrin for 10 minutes, allowing a running buffer to flow for 30 minutes, carrying out measurement with Biacore 3000, and carrying out regeneration treatment with 0.5 M EDTA aqueous solution was carried out in the same manner for 100 nM human integrin αvβ5, 300 nM human integrin αvβ5, and 1,000 nM human integrin αvβ5. Dissociation constant between the cyclic peptide and human integrin αvβ5 was calculated from the difference between the value measured by Biacore 3000 in the flow channel immobilized with the cyclic peptide and the value measured by Biacore 3000 in the flow channel unimmobilized with the cyclic peptide, in a case where each concentration of human integrin αvβ5 was allowed to flow, and the integrin binding property was evaluated according to the following evaluation standards. It is preferable that the evaluation result satisfies the evaluation standard A, B, or C.

dissociation constant (KD) | Binder
100 to 200 nM | KKKA[hCys]EPRGDSYR[Dab](COCH2)D (thioether 5-14) [Cyclic peptide 33]
100 to 200 nM | KKKA[hCys]EPRGDNYD[Dab](COCH2)D (thioether 5-14) [Cyclic peptide 35]
100 to 200 nM | KKK[βAla][hCys]EPRGDNYR[Dab(acetyl)″]-NH2 (thioether 5-14; N-terminus assumed; SMILES N=C(N)NCCC[C@@H]1NC(=O)[C@H](Cc2ccc(O)cc2)NC(=O)[C@H](CC(N)=O)NC(=O)[C@H](CC(=O)O)NC(=O)CNC(=O)[C@H](CCCNC(=N)N)NC(=O)[C@@H]2CCCN2C(=O)[C@H](CCC(=O)O)NC(=O)[C@@H](NC(=O)CCNC(=O)[C@H](CCCCN)NC(=O)[C@H](CCCCN)NC(=O)[C@@H](N)CCCCN)CCSCC(=O)NCC[C@@H](C(N)=O)NC1=O) [Cyclic peptide 51]
100 to 200 nM | KKKA[hCys]EPRGDNYR[Dab(acetyl)″]-NH2 (thioether 5-14; N-terminus assumed; SMILES C[C@H](NC(=O)[C@H](CCCCN)NC(=O)[C@H](CCCCN)NC(=O)[C@@H](N)CCCCN)C(=O)N[C@H]1CCSCC(=O)NCC[C@@H](C(N)=O)NC(=O)[C@H](CCCNC(=N)N)NC(=O)[C@H](Cc2ccc(O)cc2)NC(=O)[C@H](CC(N)=O)NC(=O)[C@H](CC(=O)O)NC(=O)CNC(=O)[C@H](CCCNC(=N)N)NC(=O)[C@@H]2CCCN2C(=O)[C@H](CCC(=O)O)NC1=O) [Cyclic peptide 50]
100 to 200 nM | KKK[hCys]PRGDNFR[Dab(acetyl)]A (thioether 4-12) [Cyclic peptide 9]

Molecular target: T1, human integrin αvβ5
Assay: SPR, Biacore 3000, peptide immobilised; A = KD 50 nM or less

dissociation constant (KD) | Binder
≤ 50 nM | KKKA[hCys]IPRGDSFA[Dab](COCH2) (thioether 5-14) [Cyclic peptide 162]
≤ 50 nM | KKK[hCys]TPRGDTFA[Dab](COCH2)A (thioether 4-13) [Cyclic peptide 159]
≤ 50 nM | KKK[hCys]VPRGDTFA[Dab](COCH2)A (thioether 4-13) [Cyclic peptide 165]
≤ 50 nM | KKK[Dab(acetyl)]VPRGDTFAC (thioether 4-13) [Cyclic peptide 141]
≤ 50 nM | KKK[hCys]TTRGDSFA[Dab(acetyl)] (thioether 4-13) [Cyclic peptide 157]
≤ 50 nM | KKK[Dab(acetyl)]VPRGDNFC (thioether 4-12) [Cyclic peptide 143]
≤ 50 nM | KKKA[hCys]TPRGDTFA[Dab(acetyl)] (thioether 5-14) [Cyclic peptide 158]
≤ 50 nM | KKKA[hCys]VPRGDTFA[Dab](COCH2) (thioether 5-14) [Cyclic peptide 164]
≤ 50 nM | KKK[hCys]IPRGDSFA[Dab](COCH2)A (thioether 4-13) [Cyclic peptide 163]
≤ 50 nM | KKKA[Dap](COCH2)EPRGDNYRC (thioether 5-14) [Cyclic peptide 166]
≤ 50 nM | KKKA[Dab(acetyl)]VPRGDTFACA (thioether 5-14) [Cyclic peptide 142]
